Source: article PMC4431665
Values belong to the substance of their own block, whether it stands above or below them.

Key:
[1] = biological target: Hsp70 E. coli T504E phosphomimic variant (human) (UniProt P0DMV8); assay: native MS; labeled wild-type Hsp70 E. coli and the T504E variant examined in a 1:1 ratio (Figure S1C)
[2] = biological target: Hsp70 E. coli V438F/T504E substrate-binding-deficient variant (human) (UniProt P0DMV8); assay: not stated; dimerization of the V438F/T504E mutant (Figure S4B); method not given
Hsp70 = assay: comparative BS3 cross-linking with LC-MS/MS; details: reference: Hsp70 expressed in E. coli; sites T504
[3] = biological target: Hsp70 expressed in E. coli (Hsp70 E. coli) (human) (UniProt P0DMV8); assay: native MS; 1:1 mixture of 13C-labeled Hsp70 E. coli and Hsp70Sf9 at 8 μM; parameters designed to preserve non-covalent interactions
[4] = biological target: Hsp70 expressed in E. coli (Hsp70 E. coli) (human) (UniProt P0DMV8); assay: native MS; Hsp70 E. coli at a higher concentration under which dimerization occurs, with phosphatase, 48 hr (Figures S1A and S1B)
[5] = biological target: Hsp70 expressed in E. coli (Hsp70 E. coli) (human) (UniProt P0DMV8); assay: native MS; 1:1 ratio of 13C-labeled Hsp70 E. coli and Hsp70Sf9 with catalytic amounts of Hsp40 and ATP
[6] = biological target: Hsp70 expressed in Sf9 insect cells (Hsp70Sf9) (human) (UniProt P0DMV8); assay: native MS; 2 μM Hsp70Sf9, 0.5 μM Hsp40, 200 μM ATP/Mg2+, binding buffer with 50, 100 or 300 mM KCl, 1 hr at room temperature; buffer exchanged to 100 mM AmAc
[7] = biological target: Hsp70 expressed in Sf9 insect cells (Hsp70Sf9) (human) (UniProt P0DMV8); assay: native MS; 1:1 mixture of 13C-labeled Hsp70 E. coli and Hsp70Sf9 at 8 μM; parameters designed to preserve non-covalent interactions
[8] = biological target: Hsp90_(2)Hop complex (human) (UniProt P07900); assay: native MS; Hsp90 and Hop with either Hsp70 E. coli or Hsp70Sf9, in the absence of Hsp40
[9] = biological target: Hsp70 expressed in Sf9 insect cells (Hsp70Sf9) (human) (UniProt P0DMV8); assay: native MS; 1:1 mixture of 3 μM 13C-labeled Hsp70 E. coli and Hsp70Sf9, incubated without phosphatase in 100 mM AmAc pH 7.5 at 4°C for 16 hr; high backing pressure
[10] = biological target: Hsp70 expressed in Sf9 insect cells (Hsp70Sf9) (human) (UniProt P0DMV8); assay: native MS; 1:1 ratio of 13C-labeled Hsp70 E. coli and Hsp70Sf9 with catalytic amounts of Hsp40 and ATP
[11] = biological target: Hsp70 expressed in Sf9 insect cells (Hsp70Sf9) (human) (UniProt P0DMV8); assay: cross-linking; BS3 on Hsp70Sf9 in excess ATP (also ADP, ATPγS); SDS-PAGE, monomer and dimer bands digested with trypsin, LC-MS/MS
Hsp90 (human) [12] = biological target: Hsp90 (human) (UniProt P07900); assay: native MS; Hsp90 and Hop with either Hsp70 E. coli or Hsp70Sf9, in the absence of Hsp40
Hsp90 (human) [13] = biological target: Hsp90 (human) (UniProt P07900); assay: native MS; Hsp70GR complex formed with catalytic Hsp40 (0.3 μM) and ATP, then incubated with Hsp90_(2)Hop; Hsp90, Hop, Hsp70 and GR equimolar (1 μM each), or two Hsp70 per Hsp90_(2)
Hsp90 (human) [14] = biological target: Hsp90 (human) (UniProt P07900); assay: native MS; stoichiometric amounts of p23 added to the client-loading complex Hsp90_(2)Hsp70_(2)HopGR
Yeast Hsp40 (yeast) = Yeast Hsp40 (yeast) (UniProt P25491); assay: native MS; Hsp40 alone, 100 mM ammonium acetate pH 7.5 (Figure S5C)

Substance: Hsp70 E. coli V438F/T504E substrate-binding-deficient variant (from UniProt P0DMV8 1-641) (natural protein)
stoichiometry N [2]: 2

Substance: Hsp70 Hsp70 expressed in Sf9 cells
other: K569-K108 cross-link intensity ratio (Hsp70): stronger; reference 1.0

Substance: Hsp70 expressed in E. coli (Hsp70 E. coli) (from UniProt P0DMV8 1-641) (natural protein)
stoichiometry N [3]: 2
stoichiometry N [4]: 2
stoichiometry N [5]: 2

Substance: Hsp90 (from UniProt P07900 1-732) (natural protein)
stoichiometry N (Hsp90 (human) [12]): 2
stoichiometry N (Hsp90 (human) [13]): 2
stoichiometry N (Hsp90 (human) [14]): 2

The remaining lines, values ahead:

stoichiometry N [1]: 2
Substance: Hsp70 E. coli T504E phosphomimic variant (from UniProt P0DMV8 1-641) (natural protein)

stoichiometry N [6]: 2
stoichiometry N [7]: 2
stoichiometry N [8]: 2
stoichiometry N [9]: 2
stoichiometry N [10]: 2
stoichiometry N [11]: 2
Substance: Hsp70 expressed in Sf9 insect cells (Hsp70Sf9) (from UniProt P0DMV8 1-641) (natural protein)

stoichiometry N (Yeast Hsp40 (yeast)): 2
Substance: Yeast Hsp40 (from UniProt P25491 1-409) (natural protein)
